{"source": "paper PMC4876929", "about": "(Nature, 2015)", "key": {"crystal structure [1]": {"target": "the molecule itself", "test": "crystal structure"}, "crystal structure [2]": {"target": "the molecule itself", "test": "crystal structure", "remark": "listed apart in the source"}}, "note": "Like-named read-outs stand apart in the source and are kept apart here.", "data": [{"protein": "Fluc channel from Bordetella pertussis (Bpe), R29K/E94C, Hg-labelled (natural protein, Hg at the unique cysteine (E94C), labelled with Hg(II) acetate) MLTYAPLNFIAIGIGATLGAWLRWVLGLKLNGAGWPWGTLTANLVGGYLIGVMVALIASHPEWPAWIRLAAVTGFLGGLTTFSTFSAETVDMLCRGVYATAAAYAGASLAGSLAMTGLGLATVRLLLR", "values": [{"measurement": "stoichiometry N", "setting": "crystal structure [1]", "result": 2}]}, {"protein": "Fluc channel from Bordetella pertussis (Bpe), R29K/E94S (natural protein, UniProt Q7VYU0 1-128, looked up) MLTYAPLNFIAIGIGATLGAWLRWVLGLKLNGAGWPWGTLTANLVGGYLIGVMVALIASHPEWPAWIRLAAVTGFLGGLTTFSTFSAETVDMLSRGVYATAAAYAGASLAGSLAMTGLGLATVRLLLR", "values": [{"measurement": "stoichiometry N", "setting": "crystal structure [2]", "result": 2}]}]}
